This passage reports Kd results from article doi:10.1101/862326.

Holding throughout (assay): ITC
A general note: ITC needs no label: the signal is the heat of the interaction.

The target in series [1] is T1, dADAR-dsRBD1 (UniProt Q9NII1 48-140).
T1 sequence: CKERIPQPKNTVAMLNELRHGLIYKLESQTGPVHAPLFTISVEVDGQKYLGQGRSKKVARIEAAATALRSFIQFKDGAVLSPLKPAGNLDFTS

Series [2] has as its target T2, TRBP2-dsRBD1 (UniProt Q15633 1-105).
T2 sequence: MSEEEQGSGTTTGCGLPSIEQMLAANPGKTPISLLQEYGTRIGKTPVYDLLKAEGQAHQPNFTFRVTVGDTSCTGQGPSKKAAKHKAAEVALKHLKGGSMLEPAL

Series [3] addresses T1, dADAR-dsRBD1. This is another data set of the same source.
Series [4] addresses T2, TRBP2-dsRBD1. The source holds these as a separate data set.
The target in series [5] is T1, dADAR-dsRBD1. This is another data set of the same source.
Series [6] deals with T2, TRBP2-dsRBD1. This is another data set of the same source.
Series [7] deals with T1, dADAR-dsRBD1. The source holds these as a separate data set.
The target of series [8] is T2, TRBP2-dsRBD1. This is another data set of the same source.
For series [9], the target named is T1, dADAR-dsRBD1. This is another data set of the same source.
The target of series [10] is T2, TRBP2-dsRBD1. The source holds these as a separate data set.

Like-named read-outs stand apart in the source and are kept apart here.

B1: miR-16-1-D (dsRNA)
RNA 1: UAGCAGCACGUAAAUAUUGGCG
RNA 2: CCAGUAUUUACGUGCUGCUGAA
A word on the Kd: it is the equilibrium constant for the complex coming apart. A higher Kd goes with weaker binding. Take B1: the Kd in series [1] worked out at 430 ± 100 nM; in series [2], 500 ± 40 nM.

B2: miR-16-1-M (dsRNA)
RNA 1: UAGCAGCACGUAAAUAUUGGCG
RNA 2: CCAGUAUUAACGUGCUGCUGAA
With B2, the Kd in series [3] amounted to 780 ± 240 nM; in series [4], 2120 ± 220 nM.

B3: miR-16-1-B (dsRNA)
RNA 1: UAGCAGCACGUAAAUAUUGGCG
RNA 2: CCAGUAUUUACUGUGCUGCUGAA
Consider B3, for which the figures for the Kd in series [5] and in [6] were 270 ± 70 nM and 690 ± 130 nM, respectively.

B4: D10RNA (dsRNA)
RNA 1: UUAUAAAUGC
RNA 2: GCAUUUAUGA
Consider B4, for which the values for the Kd in series [7] and in [8] were 210 ± 100 nM and 2210 ± 510 nM, respectively.

B5: miR-16-1 (dsRNA)
RNA 1: UAGCAGCACGUAAAUAUUGGCG
RNA 2: CCAGUAUUAACUGUGCUGCUGAA
B5: the Kd in [9] is 270 ± 50 nM; in [10], 890 ± 210 nM.
